Molecular target: recombinant Fcγ-receptor 3a protein, high affinity V158 allotype (UniProt P08637)
Experiment: surface plasmon resonance, KD from ka and kd

Chain of recombinant Fcγ-receptor 3a protein, high affinity V158 allotype (P08637 17-208 F176V): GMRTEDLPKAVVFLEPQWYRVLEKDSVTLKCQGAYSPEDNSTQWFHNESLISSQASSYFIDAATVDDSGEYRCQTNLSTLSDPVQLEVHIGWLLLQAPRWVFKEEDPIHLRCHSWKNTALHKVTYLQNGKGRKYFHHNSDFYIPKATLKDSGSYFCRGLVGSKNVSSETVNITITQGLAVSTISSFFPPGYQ

Kd: 379 nM
Substance: non Fc-engineered IgG1 reference antibody

Source: US20150266967A1
